Four molecules from patent US20140087995A1 (published 2014) can be followed below.

Numbered stars: 1 amine (or outer) side, 2 acyl side, 3 side chain; on linkers, the order of the positions; unused ones are H or OH. Bridge positions count the residues as written; N and C are the ends. Side chains are listed from the residue outwards. Ends that are not written are not given here. * marks the point of attachment. C20 diacid = O=C(O)CCCCCCCCCCCCCCCCCCC(=O)*; γGlu = O=C(O)[C@H](CCC(=O)[*:2])N[*:1]

Usually IC50 stands for the concentration that inhibits the measured activity by half.

T1: human calcitonin receptor (human, UniProt P30988 25-474)
T1 construct: whole, on cells; also called hCTR; hCT
T1 sequence (looked up): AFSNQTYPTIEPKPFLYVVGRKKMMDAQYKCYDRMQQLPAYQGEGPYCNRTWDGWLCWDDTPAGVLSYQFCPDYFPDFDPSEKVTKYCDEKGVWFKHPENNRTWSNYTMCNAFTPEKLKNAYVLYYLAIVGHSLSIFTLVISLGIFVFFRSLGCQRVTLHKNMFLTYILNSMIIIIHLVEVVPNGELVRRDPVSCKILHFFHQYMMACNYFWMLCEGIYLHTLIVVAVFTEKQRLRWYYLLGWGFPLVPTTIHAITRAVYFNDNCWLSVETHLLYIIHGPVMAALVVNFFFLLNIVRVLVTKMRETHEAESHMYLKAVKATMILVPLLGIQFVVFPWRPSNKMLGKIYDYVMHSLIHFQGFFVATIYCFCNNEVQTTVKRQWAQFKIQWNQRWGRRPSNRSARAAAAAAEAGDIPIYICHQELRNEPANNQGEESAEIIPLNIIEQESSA

T2: human amylin receptor (amylin 3(a) receptor: human calcitonin receptor plus RAMP-3) (human, UniProt P30988 25-474; O60896 24-148)
T2 construct: whole, on cells; the species of RAMP-3 is told only through the name 'human amylin receptor'; also called hAmylin-R; hAmylinR
T2 sequence (looked up) 1: T1 sequence (looked up)
T2 sequence (looked up) 2: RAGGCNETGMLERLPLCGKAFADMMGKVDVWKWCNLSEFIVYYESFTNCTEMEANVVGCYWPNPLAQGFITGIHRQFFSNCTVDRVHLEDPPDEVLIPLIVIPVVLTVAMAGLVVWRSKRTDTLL

B1: N^α1-[(4S)-4-carboxy-4-(19-carboxynonadecanoylamino)butanoyl]-[Arg17,Pro21,Pro27,Pro34,Glu35]-h-amylin (peptide)
peptide: {C20 diacid-γGlu}-KCNTATCATQRLANFLRHSSPNFGAIPSSTNVGPETY-NH2
modifications: disulfide 2-7
SMILES: CC[C@H](C)[C@H](NC(=O)[C@H](C)NC(=O)CNC(=O)[C@H](Cc1ccccc1)NC(=O)[C@H](CC(N)=O)NC(=O)[C@@H]1CCCN1C(=O)[C@H](CO)NC(=O)[C@H](CO)NC(=O)[C@H](Cc1c[nH]cn1)NC(=O)[C@H](CCCNC(=N)N)NC(=O)[C@H](CC(C)C)NC(=O)[C@H](Cc1ccccc1)NC(=O)[C@H](CC(N)=O)NC(=O)[C@H](C)NC(=O)[C@H](CC(C)C)NC(=O)[C@H](CCCNC(=N)N)NC(=O)[C@H](CCC(N)=O)NC(=O)[C@@H](NC(=O)[C@H](C)NC(=O)[C@@H]1CSSC[C@H](NC(=O)[C@H](CCCCN)NC(=O)CC[C@H](NC(=O)CCCCCCCCCCCCCCCCCCC(=O)O)C(=O)O)C(=O)N[C@@H](CC(N)=O)C(=O)N[C@@H]([C@@H](C)O)C(=O)N[C@@H](C)C(=O)N[C@@H]([C@@H](C)O)C(=O)N1)[C@@H](C)O)C(=O)N1CCC[C@H]1C(=O)N[C@@H](CO)C(=O)N[C@@H](CO)C(=O)N[C@H](C(=O)N[C@@H](CC(N)=O)C(=O)N[C@H](C(=O)NCC(=O)N1CCC[C@H]1C(=O)N[C@@H](CCC(=O)O)C(=O)N[C@H](C(=O)N[C@@H](Cc1ccc(O)cc1)C(N)=O)[C@@H](C)O)C(C)C)[C@@H](C)O
notes: also called compound 29
B2: N^α1-[(4S)-4-carboxy-4-(19-carboxynonadecanoylamino)butanoyl]-[Glu14,Arg17,Pro21,Pro27,Pro34]-h-amylin (peptide)
peptide: {C20 diacid-γGlu}-KCNTATCATQRLAEFLRHSSPNFGAIPSSTNVGPNTY-NH2
modifications: disulfide 2-7
SMILES: CC[C@H](C)[C@H](NC(=O)[C@H](C)NC(=O)CNC(=O)[C@H](Cc1ccccc1)NC(=O)[C@H](CC(N)=O)NC(=O)[C@@H]1CCCN1C(=O)[C@H](CO)NC(=O)[C@H](CO)NC(=O)[C@H](Cc1c[nH]cn1)NC(=O)[C@H](CCCNC(=N)N)NC(=O)[C@H](CC(C)C)NC(=O)[C@H](Cc1ccccc1)NC(=O)[C@H](CCC(=O)O)NC(=O)[C@H](C)NC(=O)[C@H](CC(C)C)NC(=O)[C@H](CCCNC(=N)N)NC(=O)[C@H](CCC(N)=O)NC(=O)[C@@H](NC(=O)[C@H](C)NC(=O)[C@@H]1CSSC[C@H](NC(=O)[C@H](CCCCN)NC(=O)CC[C@H](NC(=O)CCCCCCCCCCCCCCCCCCC(=O)O)C(=O)O)C(=O)N[C@@H](CC(N)=O)C(=O)N[C@@H]([C@@H](C)O)C(=O)N[C@@H](C)C(=O)N[C@@H]([C@@H](C)O)C(=O)N1)[C@@H](C)O)C(=O)N1CCC[C@H]1C(=O)N[C@@H](CO)C(=O)N[C@@H](CO)C(=O)N[C@H](C(=O)N[C@@H](CC(N)=O)C(=O)N[C@H](C(=O)NCC(=O)N1CCC[C@H]1C(=O)N[C@@H](CC(N)=O)C(=O)N[C@H](C(=O)N[C@@H](Cc1ccc(O)cc1)C(N)=O)[C@@H](C)O)C(C)C)[C@@H](C)O
notes: also called compound 32
B3: N^α1-[(4S)-4-carboxy-4-(19-carboxynonadecanoylamino)butanoyl]-[Glu14,Arg17,Pro21,Pro27,His34]-h-amylin (peptide)
peptide: {C20 diacid-γGlu}-KCNTATCATQRLAEFLRHSSPNFGAIPSSTNVGHNTY-NH2
modifications: disulfide 2-7
SMILES: CC[C@H](C)[C@H](NC(=O)[C@H](C)NC(=O)CNC(=O)[C@H](Cc1ccccc1)NC(=O)[C@H](CC(N)=O)NC(=O)[C@@H]1CCCN1C(=O)[C@H](CO)NC(=O)[C@H](CO)NC(=O)[C@H](Cc1c[nH]cn1)NC(=O)[C@H](CCCNC(=N)N)NC(=O)[C@H](CC(C)C)NC(=O)[C@H](Cc1ccccc1)NC(=O)[C@H](CCC(=O)O)NC(=O)[C@H](C)NC(=O)[C@H](CC(C)C)NC(=O)[C@H](CCCNC(=N)N)NC(=O)[C@H](CCC(N)=O)NC(=O)[C@@H](NC(=O)[C@H](C)NC(=O)[C@@H]1CSSC[C@H](NC(=O)[C@H](CCCCN)NC(=O)CC[C@H](NC(=O)CCCCCCCCCCCCCCCCCCC(=O)O)C(=O)O)C(=O)N[C@@H](CC(N)=O)C(=O)N[C@@H]([C@@H](C)O)C(=O)N[C@@H](C)C(=O)N[C@@H]([C@@H](C)O)C(=O)N1)[C@@H](C)O)C(=O)N1CCC[C@H]1C(=O)N[C@@H](CO)C(=O)N[C@@H](CO)C(=O)N[C@H](C(=O)N[C@@H](CC(N)=O)C(=O)N[C@H](C(=O)NCC(=O)N[C@@H](Cc1c[nH]cn1)C(=O)N[C@@H](CC(N)=O)C(=O)N[C@H](C(=O)N[C@@H](Cc1ccc(O)cc1)C(N)=O)[C@@H](C)O)C(C)C)[C@@H](C)O
notes: also called compound 17
B4: N^ε1-[(4S)-4-carboxy-4-[[(4S)-4-carboxy-4-(19-carboxynonadecanoylamino)butanoyl]amino]butanoyl]-[Asp14,Arg17,Pro21,Pro27,Asp35]-h-amylin (peptide)
peptide: K([γGlu-γGlu-C20 diacid])CNTATCATQRLADFLRHSSPNFGAIPSSTNVGSDTY-NH2
modifications: disulfide 2-7; N-terminus assumed
SMILES: CC[C@H](C)[C@H](NC(=O)[C@H](C)NC(=O)CNC(=O)[C@H](Cc1ccccc1)NC(=O)[C@H](CC(N)=O)NC(=O)[C@@H]1CCCN1C(=O)[C@H](CO)NC(=O)[C@H](CO)NC(=O)[C@H](Cc1c[nH]cn1)NC(=O)[C@H](CCCNC(=N)N)NC(=O)[C@H](CC(C)C)NC(=O)[C@H](Cc1ccccc1)NC(=O)[C@H](CC(=O)O)NC(=O)[C@H](C)NC(=O)[C@H](CC(C)C)NC(=O)[C@H](CCCNC(=N)N)NC(=O)[C@H](CCC(N)=O)NC(=O)[C@@H](NC(=O)[C@H](C)NC(=O)[C@@H]1CSSC[C@H](NC(=O)[C@@H](N)CCCCNC(=O)CC[C@H](NC(=O)CC[C@H](NC(=O)CCCCCCCCCCCCCCCCCCC(=O)O)C(=O)O)C(=O)O)C(=O)N[C@@H](CC(N)=O)C(=O)N[C@@H]([C@@H](C)O)C(=O)N[C@@H](C)C(=O)N[C@@H]([C@@H](C)O)C(=O)N1)[C@@H](C)O)C(=O)N1CCC[C@H]1C(=O)N[C@@H](CO)C(=O)N[C@@H](CO)C(=O)N[C@H](C(=O)N[C@@H](CC(N)=O)C(=O)N[C@H](C(=O)NCC(=O)N[C@@H](CO)C(=O)N[C@@H](CC(=O)O)C(=O)N[C@H](C(=O)N[C@@H](Cc1ccc(O)cc1)C(N)=O)[C@@H](C)O)C(C)C)[C@@H](C)O
notes: also called compound 2

The target in one assay is T1, human calcitonin receptor. The assay can be described thus: SPA competition binding, membranes with human calcitonin receptor, displacement of 125I-calcitonin (Assay VII). A digest of the protocol: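 BHK hCTR membranes 35 ng/μL + SPA beads 0.05 mg/well; buffer 50 mM Hepes pH 7.4, 1 mM CaCl2, 5 mM MgCl₂, 0.1% OA, 0.02% Tween20. 120 min, 25° C., shaking. Scintillation count; IC50 by one-site binding competition.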
On to B1, for which the IC50 amounted to 8.01 nM.
The same measure, in the same setting: the figure for B2 is 1.09 nM.
Still for that read-out and setting: the figure for B3 is 10.9 nM; for B4 it is 19.5 nM.

Another assay concerns the target T1, human calcitonin receptor. The assay can be described thus: ratio of IC50 at hCTR to IC50 at the human amylin receptor (reference). A digest of the protocol: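 Membranes (35 ng/μL final) + SPA beads, 50 mM Hepes pH 7.4 buffer with 1 mM CaCl2, 5 mM MgCl₂, 0.1% OA, 0.02% Tween20; 120 min, 25° C, shaking; centrifuged, counted; IC₅₀ by one-site binding competition.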
Take B1: the “Ratio hCT/hAmylin binding” value is 13.9.
For the molecule B2, the “Ratio hCT/hAmylin binding” value is 10.9.
On to B3, for which the “Ratio hCT/hAmylin binding” value worked out at 12.5.
For B4, the “Ratio hCT/hAmylin binding” value was found to be 47.5.

Another assay concerns the target T2, human amylin receptor (amylin 3(a) …). Put plainly: SPA competition binding, membranes with human amylin 3(a) receptor, displacement of 125I-rat amylin (Assay V). The procedure: The binding assay was performed using scintillation proximity assay (SPA) beads (RPNQ0001) from PerkinElmer and cell membranes from the Amylin 3(a)/CRE-luc cells (as described in Assay (II)) were used. Membranes were prepared in the following way; the cells were rinsed with PBS and incubated with Versene for approximately 5 min before harvesting. The cells were flushed with PBS and the cell-suspension was centrifuged for 5 min at 1000 rpm. Cells were homogenized (ultrathurrax) in a buffer containing 20 mM Na-HEPES and 10 mM EDTA (pH 7.4) and centrifuged at 20.000 rpm for 15 min. The resulting pellet was resuspended, homogenized and centrifuged (20.000 rpm, 15 min) in a buffer containing 20 mM Na-HEPES and 0.1 mM EDTA (pH 7.4, buffer 2). The resulting pellet was resuspended in buffer 2 and protein concentration was measured (BCA protein Assay, Pierce). The homogenate was kept cold during the whole procedure. The membranes were kept at −80° C. until use. The assay was performed in a 384 well Optiplate (PerkinElmer) in a total volume of 40 ul. Membranes were mixed with SPA beads. Final concentration of membranes 35 ng/μL final and SPA beads was 0.05 mg/well. Test-compounds were dissolved in DMSO and further diluted in assay buffer (50 mM Hepes, pH 7.4, 1 mM CaCl2, 5 mM MgCl₂, 0.1% OA and 0.02% Tween20). […] The final mixture was incubated with shaking at 400 rpm for 120 min at 25° C. prior to centrifugation (1500 rpm, 10 min). Samples were analyzed on TopCounter™ (Packard). The IC₅₀ was calculated using (one site binding competition analysis) GraphPad Prism5 as a measure of receptor affinity.
Background: Displacement assays read how much labelled ligand stays bound in the presence of the test substance.
B1: the IC50 is 0.577 nM.
As for B2, the IC50 is 0.1 nM.
The same measure, in the same setting: the figure for B3 is 0.878 nM.
On to B4, for which the IC50 was 0.411 nM.
